Non-standard residues stand in square brackets, D forms with d. No end group written: not given here. Cit = NC(=O)NCCC[C@H](N)C(=O)O
Columns and labels:
[1] = molecular target: T1, human recombinant histone H2A (human); assay: ELISA, 0.00064 ug/well
T1 construct: Non-deiminated
Procedure: (§1) CFC-1 and CFC-0 were coated at the same concentration and served as positive and negative controls, respectively, for specific anti-citrulline reactivity and as coating controls. Non-coated wells were used to test for aspecific binding of the antibodies. […] Detection of bound anti-citrulline antibodies was performed by incubating the wells with rabbit-anti-human-HRP (1:2000) for one hour at RT followed by incubation with TMB substrate. The resulting OD (y-axis) is a measure for antibody binding. H1=recombinant histone 1; H1/p2=huPAD2 recombinant histone 1; H1/p4=huPAD4 recombinant histone 1 and so forth (x-axis).

[2] = molecular target: T2, huPAD2 deiminated human recombinant histone H2B (human); assay: ELISA, 0.00064 ug/well
T2 construct: also called H2B/p2
Procedure: as §1

[3] = molecular target: human recombinant histone H4 (human, UniProt P62805 2-103); assay: ELISA, 0.00064 ug/well
Procedure: as §1

[4] = molecular target: T3, CFC-1; assay: ELISA, 0.00064 ug/well
T3 construct: Positive control for anti-citrulline reactivity; also called cfc1 XG
Procedure: as §1

[5] = molecular target: T4, huPAD4 deiminated human recombinant histone H2B (human); assay: ELISA, 0.00064 ug/well
T4 construct: also called H2B/p4
Procedure: as §1

[6] = molecular target: T5, huPAD4 deiminated human recombinant histone H2A (human); assay: ELISA, 0.00064 ug/well
T5 construct: also called H2A/p4; huPAD4 deiminated histone 2A
Procedure: as §1

[7] = molecular target: T6, huPAD2 deiminated human recombinant histone H2A (human); assay: ELISA, 0.00064 ug/well
T6 construct: also called H2A/p2
Procedure: as §1

[8] = molecular target: T7, human recombinant histone H2B (human); assay: ELISA, 0.00064 ug/well
T7 construct: Non-deiminated
Procedure: as §1

[9] = molecular target: T8, Histone 2A citrulline-containing peptide 8 (human, also: biotin label); assay: peptide ELISA, 0.00064 ug/well
T8 peptide: AGNAA[Cit]DNKKTR
Procedure: as §1, with “Biotin and citrulline-containing peptides derived from histone 2A were immobilized on NEUTRAVIDIN®-coated 96-well ELISA plates (0.3 μg/well). CFC-1” for “CFC-1”, “controls respectively” for “controls, respectively,”, “binding.” for “binding. H1=recombinant histone 1; H1/p2=huPAD2 recombinant histone 1; H1/p4=huPAD4 recombinant histone 1 and so forth (x-axis).”
(§2) Ninety-six-well ELISA plates were coated with NEUTRAVIDIN® (0.1 μg/well) by overnight incubation at 4° C. Wells were washed five times with PBS-TWEEN®-20 (PBS-T) and blocked by a one-hour incubation with PBS-T+1% Bovine serum albumin (BSA) at room temperature (RT). After five more washes with PBS-T, wells were incubated for one hour at RT with histone-derived citrulline and biotin-containing peptides (0.3 μg/well). […] Wells were washed five times with PBS-T and incubated with rabbit-anti-human-HRP (1:2000) for one hour at RT followed by five washes with PBS-T and three wash steps with PBS. Wells were incubated for five minutes with TMB substrate before stopping the reaction with 2 M H₂SO₄. Optical density was measured by 450 nm and is a measure for the affinity of the antibodies used.

[10] = molecular target: T9, Histone 2A citrulline-containing peptide 11 (human, also: biotin label); assay: peptide ELISA, 0.00064 ug/well
T9 peptide: LQLAI[Cit]NDEELN
Procedure: as §1, with “Biotin and citrulline-containing peptides derived from histone 2A were immobilized on NEUTRAVIDIN®-coated 96-well ELISA plates (0.3 μg/well). CFC-1” for “CFC-1”, “controls respectively” for “controls, respectively,”, “binding.” for “binding. H1=recombinant histone 1; H1/p2=huPAD2 recombinant histone 1; H1/p4=huPAD4 recombinant histone 1 and so forth (x-axis).”
as §2

[11] = molecular target: T10, Histone 2A citrulline-containing peptide 1 (human, also: biotin label); assay: peptide ELISA, 0.00064 ug/well
T10 construct: also called AAASGXGKQGGK
T10 peptide: AAASG[Cit]GKQGGK
Procedure: as §1, with “Biotin and citrulline-containing peptides derived from histone 2A were immobilized on NEUTRAVIDIN®-coated 96-well ELISA plates (0.3 μg/well). CFC-1” for “CFC-1”, “controls respectively” for “controls, respectively,”, “binding.” for “binding. H1=recombinant histone 1; H1/p2=huPAD2 recombinant histone 1; H1/p4=huPAD4 recombinant histone 1 and so forth (x-axis).”
as §2

[12] = molecular target: T11, Histone 2A citrulline-containing peptide 2 (human, also: biotin label); assay: peptide ELISA, 0.00064 ug/well
T11 peptide: AKAKS[Cit]SSRAGL
Procedure: as §1, with “Biotin and citrulline-containing peptides derived from histone 2A were immobilized on NEUTRAVIDIN®-coated 96-well ELISA plates (0.3 μg/well). CFC-1” for “CFC-1”, “controls respectively” for “controls, respectively,”, “binding.” for “binding. H1=recombinant histone 1; H1/p2=huPAD2 recombinant histone 1; H1/p4=huPAD4 recombinant histone 1 and so forth (x-axis).”
as §2

[13] = molecular target: T3, CFC-1; assay: peptide ELISA, 0.00064 ug/well
Procedure: as §1, with “Biotin and citrulline-containing peptides derived from histone 2A were immobilized on NEUTRAVIDIN®-coated 96-well ELISA plates (0.3 μg/well). CFC-1” for “CFC-1”, “controls respectively” for “controls, respectively,”, “binding.” for “binding. H1=recombinant histone 1; H1/p2=huPAD2 recombinant histone 1; H1/p4=huPAD4 recombinant histone 1 and so forth (x-axis).”
as §2

[14] = molecular target: T12, Histone 2A citrulline-containing peptide 7 (human, also: biotin label); assay: peptide ELISA, 0.00064 ug/well
T12 peptide: GNYSE[Cit]VGAGAP
Procedure: as §1, with “Biotin and citrulline-containing peptides derived from histone 2A were immobilized on NEUTRAVIDIN®-coated 96-well ELISA plates (0.3 μg/well). CFC-1” for “CFC-1”, “controls respectively” for “controls, respectively,”, “binding.” for “binding. H1=recombinant histone 1; H1/p2=huPAD2 recombinant histone 1; H1/p4=huPAD4 recombinant histone 1 and so forth (x-axis).”
as §2

[15] = molecular target: T13, Histone 2A citrulline-containing peptide 9 (human, also: biotin label); assay: peptide ELISA, 0.00064 ug/well
T13 peptide: DNKKT[Cit]IIPRHL
Procedure: as §1, with “Biotin and citrulline-containing peptides derived from histone 2A were immobilized on NEUTRAVIDIN®-coated 96-well ELISA plates (0.3 μg/well). CFC-1” for “CFC-1”, “controls respectively” for “controls, respectively,”, “binding.” for “binding. H1=recombinant histone 1; H1/p2=huPAD2 recombinant histone 1; H1/p4=huPAD4 recombinant histone 1 and so forth (x-axis).”
as §2

[16] = molecular target: T14, Histone 2A citrulline-containing peptide 4 (human, also: biotin label); assay: peptide ELISA, 0.00064 ug/well
T14 peptide: QFPVG[Cit]VHRLLR
Procedure: as §1, with “Biotin and citrulline-containing peptides derived from histone 2A were immobilized on NEUTRAVIDIN®-coated 96-well ELISA plates (0.3 μg/well). CFC-1” for “CFC-1”, “controls respectively” for “controls, respectively,”, “binding.” for “binding. H1=recombinant histone 1; H1/p2=huPAD2 recombinant histone 1; H1/p4=huPAD4 recombinant histone 1 and so forth (x-axis).”
as §2

[17] = molecular target: T15, Histone 2A citrulline-containing peptide 5 (human, also: biotin label); assay: peptide ELISA, 0.00064 ug/well
T15 peptide: VGRVH[Cit]LLRKGN
Procedure: as §1, with “Biotin and citrulline-containing peptides derived from histone 2A were immobilized on NEUTRAVIDIN®-coated 96-well ELISA plates (0.3 μg/well). CFC-1” for “CFC-1”, “controls respectively” for “controls, respectively,”, “binding.” for “binding. H1=recombinant histone 1; H1/p2=huPAD2 recombinant histone 1; H1/p4=huPAD4 recombinant histone 1 and so forth (x-axis).”
as §2

B1: RhmAb2.102 (antibody, human IgG1, lambda)
heavy: not shown
light: QSVLTQPPSMSAAPGQKVTISCSGSSSNIGNNYVSWYQQVPGTAPKLLIYDDNKRPSGIPGRFSGSKSATSATLGITGLQAGDEADYYCGSWDDNLSVVLFGGGTKLTVLGQPKAAPSVTLFPPSSEELQANKATLVCLISDFYPGAVTVAWKADSSPVKAGVETTTPSKQSNNKYAASSYLSLTPEQWKSHRSYSCQVTHEGSTVEKTVAPTECS
notes: Human IgG1 lambda; also called Rhm2.102
OD [1]: 0.057 OD
OD [2]: 0.052 OD
OD [3]: 0.06 OD
OD [4]: 0.077 OD
OD [5]: 0.055 OD
OD [6]: 0.075 OD
OD [7]: 0.077 OD
OD [8]: 0.052 OD
OD [9]: 0.057 OD
OD [10]: 0.06 OD
OD [11]: 0.16 OD
OD [12]: 0.055 OD
OD [13]: 0.621 OD
OD [14]: 0.057 OD
OD [15]: 0.059 OD
OD [16]: 0.063 OD
OD [17]: 0.067 OD

Reference: patent US20170298146A1 (MODIQUEST B V, published 2017)
